From patent US20130089497A1 (Genentech, published 2013)

Molecular target: T1, human FcRH5 (FcRH5c/IRTA2c, PRO52387), soluble recombinant protein (human, UniProt Q96RD9 16-851)
T1 construct: also called Hu antigen; FcRH5 protein
T1 chain: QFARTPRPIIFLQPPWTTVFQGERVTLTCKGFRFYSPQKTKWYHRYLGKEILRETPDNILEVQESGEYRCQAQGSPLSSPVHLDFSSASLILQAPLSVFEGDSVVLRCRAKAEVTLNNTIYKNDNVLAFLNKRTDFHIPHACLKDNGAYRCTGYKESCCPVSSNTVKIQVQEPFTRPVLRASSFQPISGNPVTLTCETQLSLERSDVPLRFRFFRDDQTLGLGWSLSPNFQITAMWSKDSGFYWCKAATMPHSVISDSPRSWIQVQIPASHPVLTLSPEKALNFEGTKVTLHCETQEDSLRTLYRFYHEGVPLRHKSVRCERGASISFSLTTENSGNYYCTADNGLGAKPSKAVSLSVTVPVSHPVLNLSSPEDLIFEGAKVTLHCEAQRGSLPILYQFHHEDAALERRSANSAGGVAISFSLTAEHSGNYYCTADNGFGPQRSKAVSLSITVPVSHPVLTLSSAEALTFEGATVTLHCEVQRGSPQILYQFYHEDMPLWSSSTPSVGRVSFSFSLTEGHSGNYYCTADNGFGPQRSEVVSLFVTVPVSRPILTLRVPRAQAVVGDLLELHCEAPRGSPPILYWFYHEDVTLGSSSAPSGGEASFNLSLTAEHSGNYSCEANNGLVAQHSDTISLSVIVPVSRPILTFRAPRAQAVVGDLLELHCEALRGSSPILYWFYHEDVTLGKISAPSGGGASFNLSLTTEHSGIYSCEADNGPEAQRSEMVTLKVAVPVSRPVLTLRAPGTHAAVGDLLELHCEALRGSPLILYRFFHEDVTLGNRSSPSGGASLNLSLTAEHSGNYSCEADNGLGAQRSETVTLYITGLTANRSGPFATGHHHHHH
Test: SPR (Biacore 2000): IgG captured on anti-murine IgG chip, FcRH injected, 25 C, 1:1 Langmuir model
Experimental: The FcRH-binding affinities of IgGs were calculated from association and dissociation rate constants measured using a Biacore 2000 surface plasmon resonance system (BIAcore, Inc.). […] Briefly, for each cycle of kinetic analysis, 5 ul of 100 nM IgG was captured on the chip, two-fold serial dilution of various FcRHs were injected at a flow rate of 20 ul/min for 150 sec. Antigen dissociation was monitored for 180 sec before regeneration. Equilibrium dissociation constants at 25° C. were calculated by fitting the data with a 1:1 Langmuir binding model. Running buffer was PBS with 0.05% Tween −20.

B1: murine monoclonal antibody anti-FcRH5-13G9 (antibody, V domains shown)
VH: EVQLVQSGPELKKPGETVKISCKASGYTFTNYGMNWVKQAPGKGLKWMGWVNTYTGEPTYTDDFKGRFAFSVETSASTVFLQINNLKNEDTATYFCARRSIPYYYAMDYWGQGTSLT
VL: DIVMTQSQKIMSTSVGDRVNVTCKASQNVGSNVAWYHQKPGQSPKALIYSASYRYSGVPDRFTGSGSGTDFTLTISNVQSEDLAEYFCQQYKTWTFGGGTKLEIKR
notes: Whole murine IgG from hybridoma; also called 13G9.1.1; mu13G9
Question: With B1 as the binder, how does the Kd read?
Answer: The Kd was 19 nM.
